Reference: publication doi:10.1101/2021.08.12.456111
Substitutions are numbered along the chain they refer to. Names may count otherwise.

B1: MBP-GGDEF_(SoPdeB), GGDEF domain of S. oneidensis PdeB, wild type (domain or fragment)
chain: RSLAVCYLDLEQFKLINDSCGHTAGDRMLAMVARAIQSCLGPQELLARIGGDEFGLVICDRTALAVAQLLKQIIAQVSLQVLHDKNCNYKVGLSIGVAFGRAPYINAQELLKDADIACIAAKAKGTNQIHIYDD
B2: SoGGDEF_(PdeB) K575S (domain or fragment)
chain: B1 chain with K122S
B3: SoGGDEF_(PdeB) K577S (domain or fragment)
chain: B1 chain with K124S

Key:
[1] = target: FimV_(SoHubP), C-terminal FimV domain of S. oneidensis HubP (S. oneidensis); experiment: interferometric scattering mass spectrometry
[2] = target: FimV_(SoHubP), C-terminal FimV domain of S. oneidensis HubP (S. oneidensis); experiment: BLI

Row | Binder | stoichiometry N (GGDEF per FimV (2:2 complex)) [1] | Kd [2] [nM] | fold increase of KD against wild type [2] [fold]
1 | B1 | 1 | 200 | 
2 | B2 |  |  | 100
3 | B3 |  |  | 10
